Measurements: PMC7251212

Target: recombinant TdfH (Neisseria gonorrhoeae TonB-dependent transporter, NGO0952) (Neisseria gonorrhoeae)
Test: ITC; Nano ITC, 25°C, 1x PBS with 0.05% DDM; TdfH (300 μl, 20 μM) in the cell, CP sample (200 μM) in 20 injections of 2.5 μl; fitted with NanoAnalyze to a two-state (multisite) model, TKO to a single-site model

B1: human calprotectin (heterodimer of S100A8 and S100A9) (complex)
chain 1: MLTELEKALNSIIDVYHKYSLIKGNFHAVYRDDLKKLLETECPQYIRKKGADVWFKELDINTDGAVNFQEFLILVIKMGVAAHKKSHEESHKE
chain 2: KMSQLERNIETIINTFHQYSVKLGHPDTLNQGEFKELVRKDLQNFLKKENKNEKVIEHIMEDLDTNADKQLSFEEFIMLMARLTWASHEKMHEGDEGPGHHHKPGLGEGTP
- KD, high-affinity interaction (two-state model): 0.004 µM
- KD, low-affinity interaction (two-state model): 35 µM
